The data set has as its system T1, Nc1ncnc2c1ncn2[C@@H]1O[C@H](COP(=O)(O)OP(=O)(O)OP(=O)(O)O)[C@@H](O)[C@H]1O.
T1 construct: holo V/A-ATPase (A3B3D1F1 + E2G2d1a1c12), C-terminal His3 tag on each c subunit, purified from T. thermophilus membranes, nucleotide removed by EDTA/phosphate dialysis, MSP1E3D1/DMPC nanodiscs; models cover V1EG; with V-type ATP synthase subunit D; V-type ATP synthase subunit F; V-type ATP synthase subunit E; V-type ATP synthase subunit G; V-type ATP synthase subunit C; V-type ATP synthase subunit I; V-type ATP synthase subunit K
The experiment in a line: purified protein. The format is biochemical, Thermus thermophilus. As to conditions: nanodisc enzyme, ATP-Mg, 50 mM Tris-HCl pH 8.0, 100 mM KCl, 25 °C, ATP-regenerating system, all rows carry A/S232A, A/T235S.

As a reminder, the Km is the substrate concentration at which the rate is half of its maximum. In general, kcat refers to the maximal rate divided by the concentration of active sites.

Turning to “Tth V/A-ATPase (A/S232A, T235S; TSSA mutant), nanodisc-incorporated, nucleotide-free (Thermus thermophilus HB8; Q56403:S232A/Q56403:T235S)”, the Km is reported as 394 µM and the turnover number (kcat) came out at 22 s⁻¹.
